Test results taken from patent US20230357364A1.

Target: SARS-CoV-1 RBD (RBD-1) (SARS-CoV-1)
Test: ELISA
Settings: remark: other sources report otherwise

B1: L12.bP11A06 (antibody, V domains shown)
VH: EVQLVESGGGLIQPGGSLRLSCAASGLTVSSNYMSWVRQAPGKGLEWVSVIYSGGSTFYADSVKGRFTISRDNSKNTLYLQMNSLRAEDTAVYYCARDLDVYGLDVWGQGTTVTVSS
VL: DIVMTQSPSFLSASVGDRVTITCRASQGISSYLAWYQQKPGKAPKLLIYAASTLQSGVPSRFSGSGSGTEFTLTISSLQPEDFATYYCQQLNSYPPKFTFGPGTKVEIK
- EC50: > 50 µg/mL
